Reference: publication PMC9569824

Molecular target: bovine pancreatic ribonuclease A (bovine) (UniProt P61823)
Test: SEC; size of the SA-2 peak from stored N-swapped oligomers, estimated from its elution volume against the calibration curves of the Superdex columns; estimate only

stoichiometry N (RNase A units): 180
Substance: bovine pancreatic ribonuclease A (from UniProt P61823 27-150) (enzyme)
